Results from patent US20150072922A1, “RNASE 7 ANTIMICROBIAL PEPTIDES” (THE RESEARCH INSTITUTE AT NATIONWIDE CHILDREN'S HOSPITAL, priority 2012, published 2015).
“Also recorded” adds a separate entry of the source. Marks after values point to notes of the source that are not given here. Primed or numbered codes have the meaning given here. No end group written: not given here. *: point of attachment. His tag″ = six-residue histidine tag (His-tag) at the NH2-terminus, N[C@@H](Cc1c[nH]cn1)C(=O)N[C@@H](Cc1c[nH]cn1)C(=O)N[C@@H](Cc1c[nH]cn1)C(=O)N[C@@H](Cc1c[nH]cn1)C(=O)N[C@@H](Cc1c[nH]cn1)C(=O)N[C@@H](Cc1c[nH]cn1)C(=O)*; His tag = six-residue histidine tag at the N-terminus, N[C@@H](Cc1c[nH]cn1)C(=O)N[C@@H](Cc1c[nH]cn1)C(=O)N[C@@H](Cc1c[nH]cn1)C(=O)N[C@@H](Cc1c[nH]cn1)C(=O)N[C@@H](Cc1c[nH]cn1)C(=O)N[C@@H](Cc1c[nH]cn1)C(=O)*

Assays:
[1] = tested on: Proteus mirabilis (ATCC 7002); assay: Antimicrobial kill (microdilution) assay, MIC/MBC by CFU count; type: cell-based; details: for antimicrobial activity against P. mirabilis (in words): MIC/MBC based, mostly compared to full-length RNase 7; for P. mirabilis MIC: lowest concentration that inhibits the growth of 90% of the inoculation; for P. mirabilis MIC / P. mirabilis MBC: 3 hours, 0.1×PBS; for P. mirabilis MBC: minimum bactericidal concentration
Description: Uropathogenic Escherichia coli (UTI89) was grown in Luria broth (LB) medium and plated on LB-agar. Uropathogenic Staphylococcus saprophyticus (ATCC 15305) was grown in LB and plated on Trypticase Soy Agar with 5% sheep blood (Fisher Scientific, Pittsburgh, Pa., USA). Uropathogenic Proteus mirabilis (ATCC 7002) was grown in LB and plated on MacConkey II Agar (Fisher Scientific, Pittsburgh, Pa., USA). These organisms were chosen as the primary organisms that account for a majority of Gram-negative and Gram-positive urinary tract infections (UTI). Anti-RNase 7 antibody was generated in rabbit with recombinant human RNase 7 (Biomatik, Wilmington, Del., USA)
(§1) Antimicrobial activities of the recombinant peptides were estimated with a microdilution assay. Briefly, the test bacteria (10^4 CFUs) were incubated with various concentrations of RNase 7 and each fragment in 50 ul 0.1×PBS buffer for 3 hours at 37° C. After incubation on Agar plates overnight at 37° C., the number of colony-forming units (CFUs) at each peptide concentration was determined. Using untreated bacterial aliquots as baseline, the minimum inhibition concentration (MIC) was defined as the lowest concentration that inhibits the growth of 90% of the inoculation, and the minimum bactericidal concentration (MBC) was defined as the lowest concentration at which less than 99.99% of the initial inoculum is viable.

Escherichia coli (UTI89) = assay: as above; type: cell-based; details: for antimicrobial activity against E. coli (in words): MIC/MBC based, mostly compared to full-length RNase 7; for E. coli MIC: lowest concentration that inhibits the growth of 90% of the inoculation; for E. coli MIC / E. coli MBC: 3 hours, 0.1×PBS; for E. coli MBC: minimum bactericidal concentration
Description: (§2) The antimicrobial activity of RNase 7 and its fragments was estimated using a microdilution assay. Briefly, test bacteria (10^5) were incubated with several concentrations of RNase 7 and each fragment in 50 μl 0.1×PBS buffer for 3 hours in a 37° C. incubator. Each reaction was plated on the appropriate medium and grew overnight at 37° C. The antimicrobial activity was determined by the number of colony-forming units (CFUs) the following day. The minimum inhibition concentration (MIC) is defined as the lowest concentration that inhibits the growth of 90% of the inoculation and the minimum bactericidal concentration (MB C) is defined as the lowest concentration at which less than 99.99% of the initial inoculum is viable.
as §1

[2] = tested on: Staphylococcus saprophyticus (ATCC 15305); assay: as above; type: cell-based; details: for antimicrobial activity against S. saprophyticus (in words): MIC/MBC based, mostly compared to full-length RNase 7; for S. saprophyticus MIC: lowest concentration that inhibits the growth of 90% of the inoculation; for S. saprophyticus MIC / S. saprophyticus MBC: 3 hours, 0.1×PBS; for S. saprophyticus MBC: minimum bactericidal concentration
Description: as §2, §1

E. coli = assay: Urinary condition functional assay (OD600 growth curves); type: cell-based, Escherichia coli; details: 2 μM peptide, 50, 150, 500 mM NaCl, OD600 for 10 hours, FIG. 4
Description: (§3) Because the urinary environment can have significant variation in salt concentration, ionic composition, and pH, an antimicrobial/bacteriostatic assay was performed to evaluate if pH, calcium, or ionic strength affects the activity of full-length RNase7 or its fragments. The highest activity fragment F:1-97 and lowest activity fragment F:72-128 for these experiments were chosen. Bacteria were inoculated in 1% peptone water and growth to log phase with OD600=0.5. Bacteria were diluted to 1:10 and 1 μl added to 100 μl of 1% peptone water with various pH, CaCl2 or NaCl concentrations that correspond to a physiologic range present in the urine in a 96-well flat bottom plate (Thermo Scientific, Nunc, Worcester, Mass.). To each well, 2 μM of RNase7 or its fragments were added.
(§4) Bacterial growth was monitored using an Absorbance microplate reader (BioTek Instruments, Winooski, Vt.) at a final volume of 110 μl. The turbidity of the culture was measured and recorded at t=0 and every 20 min thereafter for 10 hours using the absorbance at 600 nm (OD600). The values of OD600 values were plotted against times to generate growth curves.

S. saprophyticus = assay: as above; type: cell-based, Staphylococcus saprophyticus
Description: as §3, §4

Proteus mirabilis = assay: as above; type: cell-based
Description: as §3, §4

Molecule	antimicrobial activity against P. mirabilis (in words) [1]	P. mirabilis MIC [1]	P. mirabilis MBC [1]	antimicrobial activity against E. coli (in words) (Escherichia coli (UTI89))	E. coli MIC (Escherichia coli (UTI89))	E. coli MBC (Escherichia coli (UTI89))	antimicrobial activity against S. saprophyticus (in words) [2]	S. saprophyticus MIC [2]	S. saprophyticus MBC [2]	activity on E. coli growth at various NaCl titers (E. coli)	activity on S. saprophyticus growth at various NaCl titers (S. saprophyticus; 2 μM peptide, 50, 150, 500 mM NaCl, OD600 for 10 hours, FIG. 7)	activity on S. saprophyticus growth at various pH levels (S. saprophyticus; 2 μM peptide, pH 5, 7, 9, OD600 for 10 hours, FIG. 6)	activity on Proteus mirabilis growth at various NaCl titers (Proteus mirabilis; 2 μM peptide, 50, 150, 500 mM NaCl, OD600 for 10 hours, FIG. 10)	activity on Proteus mirabilis growth at various pH levels (Proteus mirabilis; 2 μM peptide, pH 5, 7, 9, OD600 for 10 hours, FIG. 9)
F:84-128: recombinant C-terminal RNase 7 fragment, amino acids 84 to 128, N-terminal His tag ({His tag}-TSGKYPNCRYKEKRQNKSYVVACKPPQKKDSQQFHLVPVHLDRVL; cysteine pairing not given here)	poor antimicrobial function against all uropathogens	>3.5** uM	>3.5** uM	poor antimicrobial function against all uropathogens	1.92** uM	>3.5** uM	poor antimicrobial function against all uropathogens	1.75 µM	3.5* uM	–	–	–	–	–
F:1-45: recombinant N-terminal RNase 7 fragment, amino acids 1 to 45 (SEQ ID NO: 2), N-terminal His tag ({His tag″}-KPKGMTSSQWFKIQHMQPSPQACNSAMKNINKHTKRCKDLNTFLH; ends and bridges not checked; listed as Homo sapiens)	no activity at high concentrations	>7** uM	>7** uM	–	0.49 µM	0.98 µM	–	0.13 µM	0.5 µM	–	–	–	–	–
F:72-128: recombinant C-terminal RNase 7 fragment, amino acids 72 to 128, N-terminal His tag ({His tag}-SHGPVSLTMCKLTSGKYPNCRYKEKRQNKSYVVACKPPQKKDSQQFHLVPVHLDRVL; ends and bridges not checked)	–	>3.5** uM	>3.5** uM	least activity	3.5** uM	7* uM	–	3.5** uM	>7** uM	inhibitory effect of 500 mM NaCl against E. coli was diminished with the addition of F:72-128	minimal activity against S. saprophyticus at all NaCl concentrations	minimal activity with enhanced growth at pH 7 and 9; also recorded: grew better with the addition of F:72-128 at pH 7 and 9	minimal activity against P. mirabilis at all NaCl concentrations	minimal activity with enhanced growth at pH 7 and 9
F:1-83: recombinant N-terminal RNase 7 fragment, amino acids 1 to 83 (SEQ ID NO: 4), N-terminal His tag (protein, listed as Homo sapiens, N-terminal His tag) KPKGMTSSQWFKIQHMQPSPQACNSAMKNINKHTKRCKDLNTFLHEPFSSVAATCQTPKIACKNGDKNCHQSHGPVSLTMCKL	–	.44 µM	.88 µM	–	0.43 µM	0.87 µM	–	0.34 µM	0.69 µM	–	–	–	–	–
F:30-128: recombinant C-terminal RNase 7 fragment, amino acids 30 to 128, N-terminal His tag (protein, left off: small tags and cut ends, recombinant C-terminal RNase 7 fragment, amino acids 30 to 128, N-terminal His tag) INKHTKRCKDLNTFLHEPFSSVAATCQTPKIACKNGDKNCHQSHGPVSLTMCKLTSGKYPNCRYKEKRQNKSYVVACKPPQKKDSQQFHLVPVHLDRVL	–	>3.5** uM	>3.5** uM	–	0.52 µM	2.07 µM	–	0.88* uM	.88 µM	–	–	–	–	–
F:56-128: recombinant C-terminal RNase 7 fragment, amino acids 56 to 128, N-terminal His tag (protein, left off: small tags and cut ends, recombinant C-terminal RNase 7 fragment, amino acids 56 to 128, N-terminal His tag) QTPKIACKNGDKNCHQSHGPVSLTMCKLTSGKYPNCRYKEKRQNKSYVVACKPPQKKDSQQFHLVPVHLDRVL	–	>7** uM	>7** uM	–	0.83 µM	1.65 µM	MICs similar to full-length	0.22 µM	1.75* uM	–	–	–	–	–
F:1-107: recombinant N-terminal RNase 7 fragment, amino acids 1 to 107 (SEQ ID NO: 6), N-terminal His tag (protein, listed as Homo sapiens, N-terminal His tag) KPKGMTSSQWFKIQHMQPSPQACNSAMKNINKHTKRCKDLNTFLHEPFSSVAATCQTPKIACKNGDKNCHQSHGPVSLTMCKLTSGKYPNCRYKEKRQNKSYVVACK	–	.44 µM	.44 µM	–	0.57 µM	0.57 µM	–	0.49 µM	>1.96* uM	–	–	–	–	–
F:46-128: recombinant C-terminal RNase 7 fragment, amino acids 46 to 128, N-terminal His tag (protein, left off: small tags and cut ends, recombinant C-terminal RNase 7 fragment, amino acids 46 to 128, N-terminal His tag) EPFSSVAATCQTPKIACKNGDKNCHQSHGPVSLTMCKLTSGKYPNCRYKEKRQNKSYVVACKPPQKKDSQQFHLVPVHLDRVL	–	3.5 µM	>3.5** uM	–	0.34 µM	.68 µM	MICs similar to full-length	0.22 µM	1.75* uM	–	–	–	–	–
